Laboratory results: US20140057830A1 (COMPLIX, published 2014)
Changes are numbered by the printed parent chain.

Molecular target: T1, human IL-23 (human, UniProt Q9NPF7 20-189; P29460 23-328)
T1 construct: Heterodimer p19/p40; in the ELISA captured on the plate through a biotinylated anti-p40 antibody (clone C8.6); also called cytokine IL-23 (eBioscience, 34-8239-85)
T1 sequence (looked up) 1: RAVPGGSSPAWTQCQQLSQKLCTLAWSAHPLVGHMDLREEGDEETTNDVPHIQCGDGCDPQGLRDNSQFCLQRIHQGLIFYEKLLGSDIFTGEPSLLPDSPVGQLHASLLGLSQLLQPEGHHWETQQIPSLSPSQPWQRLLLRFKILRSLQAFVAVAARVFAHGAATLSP
T1 sequence (looked up) 2: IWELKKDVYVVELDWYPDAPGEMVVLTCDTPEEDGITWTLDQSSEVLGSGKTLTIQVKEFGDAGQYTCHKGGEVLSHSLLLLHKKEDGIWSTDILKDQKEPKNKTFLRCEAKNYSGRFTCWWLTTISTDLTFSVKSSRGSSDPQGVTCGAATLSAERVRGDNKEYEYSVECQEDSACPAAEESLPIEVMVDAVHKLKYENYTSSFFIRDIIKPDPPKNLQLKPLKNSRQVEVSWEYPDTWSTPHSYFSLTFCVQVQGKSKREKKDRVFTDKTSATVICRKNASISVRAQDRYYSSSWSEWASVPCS
Assay: phage ELISA; IL-23 captured by anti-p40 antibody
Experimental: The set-up of the ELISA was as follows. Neutravidin was immobilized on the plate at a concentration of 0.010 mg/ml in PBS (0.100 ml) for 1 hour at room temperature (RT). Plates were washed 5 times with PBS containing 0.05% Tween 20 (PBST) for 5 min. Subsequently, 0.1 ml Biotinylated anti-p40 antibody (100 nM) was added to the plates in PBS containing 0.1% BSA and incubated overnight at 4° C. or at RT for 1 hour. After incubation, plates were washed 5 times with PBST and blocked with PBS containing 0.1% BSA and 0.5% gelatin (0.120 ml/well) for at least 1 hour at room temperature or overnight at 4° C. After washing 5 times with PBST, 100 nM IL-23 (target) was added to 0.1 ml PBS, 0.1% BSA. For individual negative controls no IL-23 was added (background).
In the meantime, the bacteria plates were centrifuged at 1700 rpm for 10 min to pellet the bacteria. Plates with the immobilized IL-23 were washed 5 times with PBST and 0.050 ml of PBS with 0.2% BSA were added to the plate together with 0.050 ml of the bacterial culture supernatant containing phage. Plates were incubated for 1 to 1.5 hours at room temperature while shaking. Shaking of the plates enhanced the ELISA signals.

B1: SEQ ID NO 38 (designed binder)
chain: GSIEQIQKFIASIQESIARIQKSIYAMTGGSGGSGGGSIEQIQKQIAAIQKQIAAIQKQIYAMTGSGGGGSGGSIEQIQKQITAIARQIVAIIVQITAMTP
notes: Alphabody, AC12 library clone
binding result: binds

B2: SEQ ID NO 10 (designed binder)
chain: GSIEQIQKKIAVIQEVIAGIQKGIYAMTGGSGGSGGGSIEQIQKQIAAIQKQIAAIQKQIYAMTGSGGGGSGGSIEQIQKQISAIIIQITAIVKQIMAMTP
notes: Alphabody, AC12 library clone
binding result: binds

B3: SEQ ID NO 6 (designed binder)
chain: GSIEQIQKGIALIQEWIAWIQKSIYAMTGGSGGSGGGSIEQIQKQIAAIQKQIAAIQKQIYAMTGSGGGGSGGSIEQIQKQILAISLQIMAILEQIMAMTP
notes: Alphabody, AC12 library clone
binding result: binds

B4: SEQ ID NO 5 (designed binder)
chain: B1 chain with S12N, S16L, R19C, S23N, R87S, V90Y, I93V, V94A
notes: Alphabody, AC12 library clone
binding result: binds

B5: SEQ ID NO 3 (designed binder)
chain: B1 chain with F9R, S12F, S16T, R19W, S23N, T83S, V90R, I93L, V94G, T97F
notes: Alphabody, AC12 library clone
binding result: binds

B6: SEQ ID NO 47 (designed binder)
chain: B2 chain with V12G, G19L, G23F, S83R, I86S, I87S, T90Q, K94L, M97L
notes: Alphabody, AC12 library clone
binding result: binds

B7: SEQ ID NO 43 (designed binder)
chain: B2 chain with K9L, V12S, V16Y, G19T, G23L, I86M, T90N, V93L, K94G, M97F
notes: Alphabody, AC12 library clone
binding result: binds

B8: SEQ ID NO 36 (designed binder)
chain: B1 chain with S12P, S16Y, R19A, S23I, T83A, R87S, V90K, I93V, V94T, T97V
notes: Alphabody, AC12 library clone
binding result: binds

B9: SEQ ID NO 50 (designed binder)
chain: B1 chain with F9A, S12K, S16T, R19F, R87G, V90Y, I93L, V94Q, T97F
notes: Alphabody, AC12 library clone
binding result: binds

B10: SEQ ID NO 42 (designed binder)
chain: B1 chain with F9V, S12P, S16Y, R19I, S23Y, T83S, A86M, V90Y, V94S, T97Q
notes: Alphabody, AC12 library clone
binding result: binds

B11: SEQ ID NO 20 (designed binder)
chain: B1 chain with F9V, S12R, S16V, R19S, S23Y, T83G, A86V, R87T, V90L, V94S
notes: Alphabody, AC12 library clone
binding result: binds

B12: SEQ ID NO 18 (designed binder)
chain: B2 chain with K9T, V12S, G19A, G23Y, S83A, I86G, I87S, T90I, K94R, M97R
notes: Alphabody, AC12 library clone
binding result: binds

B13: SEQ ID NO 23 (designed binder)
chain: B1 chain with S16C, S23T, T83K, A86R, R87T, V90F, I93F, V94R, T97Y
notes: Alphabody, AC12 library clone
binding result: binds

B14: SEQ ID NO 13 (designed binder)
chain: B1 chain with F9R, S12P, S16C, R19F, S23L, A86G, V90M, I93F, V94I, T97W
notes: Alphabody, AC12 library clone
binding result: binds

B15: SEQ ID NO 40 (designed binder)
chain: B1 chain with F9G, S12I, S16T, R19Y, V90T, V94A, T97F
notes: Alphabody, AC12 library clone
binding result: binds

B16: SEQ ID NO 9 (designed binder)
chain: GSIEQIQKKIATIQEYIAYIQKFIYAMTGGSGGSGGGSIEQIQKQIAAIQKQIAAIQKQIYAMTGSGGGGSGGSIEQIQKQIKAILGQIGAIIGQIWAMTP
notes: Alphabody, AC12 library clone
binding result: binds

B17: SEQ ID NO 31 (designed binder)
chain: GSIEQIQKTIARIQEGIAVIQKLIYAMTGGSGGSGGGSIEQIQKQIAAIQKQIAAIQKQIYAMTGSGGGGSGGSIEQIQKQIRAIVRQITAIMTQIFAMTP
notes: Alphabody, AC12 library clone
binding result: binds

B18: SEQ ID NO 26 (designed binder)
chain: B16 chain with K9L, T12V, Y19L, F23K, L86A, G87T, G90S, G94R, W97F
notes: Alphabody, AC12 library clone
binding result: binds

B19: SEQ ID NO 61 (designed binder)
chain: B1 chain with F9R, S12G, S16Y, R19K, T83S, A86S, I93V, V94S, T97L
notes: Alphabody, AC12 library clone
binding result: binds

B20: SEQ ID NO 22 (designed binder)
chain: B1 chain with F9M, S12P, S16L, S23D, T83G, A86T, V90L, I93L, T97G
notes: Alphabody, AC12 library clone
binding result: binds

B21: SEQ ID NO 29 (designed binder)
chain: B1 chain with F9L, S12R, R19M, S23K, T83I, R87K, V90L, I93V, V94S, T97K
notes: Alphabody, AC12 library clone
binding result: binds

B22: SEQ ID NO 25 (designed binder)
chain: GSIEQIQKYIARIQEKIAYIQKMIYAMTGGSGGSGGGSIEQIQKQIAAIQKQIAAIQKQIYAMTGSGGGGSGGSIEQIQKQIIAIGSQILAILDQIYAMTP
notes: Alphabody, AC12 library clone
binding result: binds

B23: SEQ ID NO 8 (designed binder)
chain: B22 chain with R12P, K16I, Y19K, M23L, I83G, G86I, L90G, D94G
notes: Alphabody, AC12 library clone
binding result: binds

B24: SEQ ID NO 64 (designed binder)
chain: B22 chain with Y9V, K16P, Y19V, I83S, G86R, L93I, D94R, Y97F
notes: Alphabody, AC12 library clone
binding result: binds

B25: SEQ ID NO 19 (designed binder)
chain: B17 chain with R12A, G16C, V19R, L23A, R87S, T90S, M93L, T94I, F97G
notes: Alphabody, AC12 library clone
binding result: binds

B26: SEQ ID NO 59 (designed binder)
chain: B1 chain with F9W, S12L, S16K, S23D, T83N, R87G, V90L, I93A, V94T, T97M
notes: Alphabody, AC12 library clone
binding result: binds

B27: SEQ ID NO 27 (designed binder)
chain: B1 chain with F9W, S12Q, S16N, R19D, S23L, T83P, R87Y, V90L, V94R, T97S
notes: Alphabody, AC12 library clone
binding result: binds

B28: SEQ ID NO 4 (designed binder)
chain: B3 chain with G9T, L12M, W16Y, S23K, L83R, S86V, L87G, E94R, M97T
notes: Alphabody, AC12 library clone
binding result: binds

B29: SEQ ID NO 33 (designed binder)
chain: GSIEQIQKGIAPIQEMIASIQKVIYAMTGGSGGSGGGSIEQIQKQIAAIQKQIAAIQKQIYAMTGSGGGGSGGSIEQIQKQIMAIAFQIFAIMRQILAMTP
notes: Alphabody, AC12 library clone
binding result: binds

B30: SEQ ID NO 2 (designed binder)
chain: B2 chain with K9G, V12R, G19K, S83V, I86T, I87H, V93I, K94W, M97W
notes: Alphabody, AC12 library clone
binding result: binds
